Test results from patent US20170073406A1.

Assays:
[1] = target: biotinylated His-tagged TGF-β1 LAP C4S (Homo sapiens (Human)) (UniProt P01137); test: ELISA, neutravidin plate with biotinylated His-tagged TGF-β1 LAP C4S; antibody dilution 1:10,000; fluorescent secondary detection
[2] = target: biotinylated His-tagged TGF-β1 LAP C4S (Homo sapiens (Human)) (UniProt P01137); test: ELISA, neutravidin plate with biotinylated His-tagged TGF-β1 LAP C4S; antibody dilution 1:1,000; fluorescent secondary detection
[3] = target: biotinylated His-tagged TGF-β1 LAP C4S (Homo sapiens (Human)) (UniProt P01137); test: ELISA, neutravidin plate with biotinylated His-tagged TGF-β1 LAP C4S; antibody dilution 1:5,000; fluorescent secondary detection

biotinylated His-tagged TGF-β1 LAP C4S (Homo sapiens (Human)), sequence (P01137 other isoform, or with tags, fused parts or gaps limits assumed): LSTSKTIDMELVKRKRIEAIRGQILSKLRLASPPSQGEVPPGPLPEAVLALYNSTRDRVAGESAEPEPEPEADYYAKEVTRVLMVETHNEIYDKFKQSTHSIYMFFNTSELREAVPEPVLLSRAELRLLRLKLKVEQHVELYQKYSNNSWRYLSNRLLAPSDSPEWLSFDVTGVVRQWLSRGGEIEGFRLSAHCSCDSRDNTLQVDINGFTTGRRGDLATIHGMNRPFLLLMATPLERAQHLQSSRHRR

RFU [1]: 198 RFU | RFU [2]: 218 RFU | RFU [3]: 214 RFU
B1: 1D11 antibody (mouse monoclonal anti-TGF-β1, 2 and 3 antibody, R&D Systems, Minneapolis, Minn.) (antibody, from another filing, V domains shown)
VH: QVQLQQSGPELVRPGASVKLSCKASGYIFITYWMNWVKQRPGQGLEWIGQIFPASGSTNYNEMFEGKATLTVDTSSSTAYMQLSSLTSEDSAVYYCARGDGNYALDAMDYWGQGTSVTVSS
VL: DIVLTQSPASLAVSLGQRATISCRASESVDSYGNSFMHWYQQKSGQPPKLLIYLASNLESGVPARFSGSGSRTDFTLTIDPVEADDAATYYCQQNNEDPLTFGAGTKLEIK
